Data reported in doi:10.1101/2024.07.16.603632.
Blank lines part the entries; values can stand above or below the binder they belong to.

Biological target: fluorescently labeled isolated Grb2 C-SH3 domain
Assay: fluorescence polarisation; fluorescence anisotropy; PTP1B titrated into a solution of N-terminally fluorophore-labelled Grb2 construct; N = 2–4 independent titrations

Kd: 62 µM
B1: PTP1B^1−321 (wild-type protein tyrosine phosphatase 1B, residues 1-321) (domain or fragment)
chain: MEMEKEFEQIDKSGSWAAIYQDIRHEASDFPCRVAKLPKNKNRNRYRDVSPFDHSRIKLHQEDNDYINASLIKMEEAQRSYILTQGPLPNTCGHFWEMVWEQKSRGVVMLNRVMEKGSLKCAQYWPQKEEKEMIFEDTNLKLTLISEDIKSYYTVRQLELENLTTQETREILHFHYTTWPDFGVPESPASFLNFLFKVRESGSLSPEHGPVVVHCSAGIGRSGTFCLADTCLLLMDKRKDPSSVDIKKVLLEMRKFRMGLIQTADQLRFSYLAVIEGAKFIMGDSSVQDQWKELSHEDLEPPPEHIPPPPRPPKRILEPHN

Kd: 82.4 µM
B2: PTP1B^1−401 (domain or fragment)
chain: MEMEKEFEQIDKSGSWAAIYQDIRHEASDFPCRVAKLPKNKNRNRYRDVSPFDHSRIKLHQEDNDYINASLIKMEEAQRSYILTQGPLPNTCGHFWEMVWEQKSRGVVMLNRVMEKGSLKCAQYWPQKEEKEMIFEDTNLKLTLISEDIKSYYTVRQLELENLTTQETREILHFHYTTWPDFGVPESPASFLNFLFKVRESGSLSPEHGPVVVHCSAGIGRSGTFCLADTCLLLMDKRKDPSSVDIKKVLLEMRKFRMGLIQTADQLRFSYLAVIEGAKFIMGDSSVQDQWKELSHEDLEPPPEHIPPPPRPPKRILEPHNGKCREFFPNHQWVKEETQEDKDCPIKEEKGSPLNAAPYGIESMSQDTEVRSRVVGGSLRGAQAASPAKGEPSLPEKDEDH
